The values that follow come from US11155596B2, “Polypeptide” (AFFIBODY AB, priority 2016, dated 2021).

For assay [1], the target named is PD-L1 on PD-L1 expressing cells (IFNg-stimulated THP-1 cells; MDA-MB-231 cells) (Homo sapiens (Human)) (UniProt Q9NZQ7). Briefly: FACS, MDA-MB-231 cells, 0.625 µg/ml; negative control (buffer) 69. (In general: Flow cytometry measures light scatter and fluorescence of single cells or particles in a stream.)
The target is the same in assay [2]. Briefly: FACS, MDA-MB-231 cells, 1 µg/ml, positive control.
Assay [3] concerns the target human PD-L1 Fc Chimera (R&D Systems, cat. no. 156-B7-100) (human) (UniProt Q9NZQ7). Briefly: ELISA screen, 40 pM hPD-L1.

Sequence of human PD-L1 Fc Chimera (R&D Systems, cat. no. 156-B7-100) (human) (Q9NZQ7 19-239, change not shown): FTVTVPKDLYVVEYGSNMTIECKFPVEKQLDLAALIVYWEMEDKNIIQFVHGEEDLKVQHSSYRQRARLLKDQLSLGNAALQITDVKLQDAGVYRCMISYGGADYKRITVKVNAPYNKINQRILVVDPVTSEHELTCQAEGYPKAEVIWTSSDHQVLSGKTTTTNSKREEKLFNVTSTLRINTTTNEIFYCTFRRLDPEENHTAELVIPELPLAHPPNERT

As to “ipilimumab (Yervoy, Bristol-Myers Squibb, bought) (antibody)”, the MFI in assay [1] came to 64. The substance “mouse anti-PD-L1 antibody (R&D Systems, cat. no. MAB1561) (tool reagent)” yielded an MFI in assay [2] of 610. As to “fusion protein ABD with no Z-fusion partner (periplasmic negative control) (from UniProt P19909)”, the ELISA response (average) in assay [3] worked out at 0.051 AU.
